Where no end group is shown, it is not given here. Side-chain parts run from the residue outwards. [ ]: non-standard residue; d: D form. The star is where a group is joined. BODIPY(FL) = CC1=CC(C)=[N+]2C1=Cc1ccc(CCC(=O)*)n1[B-]2(F)F; NMeK = CN[C@@H](CCCCN)C(=O)O A value given as a limit tells only on which side of the number the result lay.

Among the data in US20200087347 (published 2020) are IC50 values, retold here.

Common to all, as to test: competition
One test deals with T1, integrin αvβ8 (human, UniProt P06756).
T1 chain 1: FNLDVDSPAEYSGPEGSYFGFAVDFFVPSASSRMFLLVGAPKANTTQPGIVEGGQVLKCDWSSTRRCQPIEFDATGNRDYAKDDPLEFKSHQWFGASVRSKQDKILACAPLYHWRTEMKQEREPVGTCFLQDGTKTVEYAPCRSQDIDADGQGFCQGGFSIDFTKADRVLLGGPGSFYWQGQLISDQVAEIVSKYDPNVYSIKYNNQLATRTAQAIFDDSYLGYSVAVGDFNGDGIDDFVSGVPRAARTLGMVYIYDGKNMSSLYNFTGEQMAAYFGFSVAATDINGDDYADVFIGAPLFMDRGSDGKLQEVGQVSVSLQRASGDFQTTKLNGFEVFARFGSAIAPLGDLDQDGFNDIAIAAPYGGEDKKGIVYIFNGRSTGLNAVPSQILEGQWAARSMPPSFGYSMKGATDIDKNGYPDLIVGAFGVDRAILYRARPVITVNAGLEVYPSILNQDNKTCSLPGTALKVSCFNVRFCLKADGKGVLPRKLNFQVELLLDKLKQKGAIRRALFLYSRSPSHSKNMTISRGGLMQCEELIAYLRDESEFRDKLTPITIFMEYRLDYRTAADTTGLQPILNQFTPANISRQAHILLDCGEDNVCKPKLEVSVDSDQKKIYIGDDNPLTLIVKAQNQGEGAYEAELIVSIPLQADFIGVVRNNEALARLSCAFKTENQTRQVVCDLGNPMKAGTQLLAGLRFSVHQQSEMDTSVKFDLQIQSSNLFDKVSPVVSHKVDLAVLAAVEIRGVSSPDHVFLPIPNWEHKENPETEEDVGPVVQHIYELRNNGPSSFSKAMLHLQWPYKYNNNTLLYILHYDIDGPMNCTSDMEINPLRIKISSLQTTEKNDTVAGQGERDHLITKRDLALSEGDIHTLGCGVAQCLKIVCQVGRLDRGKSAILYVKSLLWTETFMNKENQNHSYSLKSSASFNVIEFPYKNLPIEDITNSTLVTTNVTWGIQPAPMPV
T1 chain 2: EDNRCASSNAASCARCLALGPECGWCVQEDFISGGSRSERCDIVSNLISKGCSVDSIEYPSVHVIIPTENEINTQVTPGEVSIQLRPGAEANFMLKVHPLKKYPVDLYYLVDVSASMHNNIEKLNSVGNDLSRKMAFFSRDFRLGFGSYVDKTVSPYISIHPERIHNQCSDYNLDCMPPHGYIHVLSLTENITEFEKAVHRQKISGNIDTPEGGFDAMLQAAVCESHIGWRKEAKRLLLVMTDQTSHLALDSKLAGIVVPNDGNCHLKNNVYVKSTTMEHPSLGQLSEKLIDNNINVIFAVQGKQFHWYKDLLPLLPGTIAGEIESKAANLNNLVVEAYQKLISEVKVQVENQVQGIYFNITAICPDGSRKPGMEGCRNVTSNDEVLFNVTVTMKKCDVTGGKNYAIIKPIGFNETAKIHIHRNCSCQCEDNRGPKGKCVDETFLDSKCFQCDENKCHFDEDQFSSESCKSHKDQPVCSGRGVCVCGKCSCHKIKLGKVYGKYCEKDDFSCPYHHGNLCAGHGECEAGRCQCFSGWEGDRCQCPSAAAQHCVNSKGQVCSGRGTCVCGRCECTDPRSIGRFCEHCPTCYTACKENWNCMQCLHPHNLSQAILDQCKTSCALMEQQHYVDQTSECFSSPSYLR

Another test addresses integrin α5β1 (human, UniProt P08648).
A further test concerns the target T2, integrin αvβ5 (human, UniProt P06756).
T2 chain 1: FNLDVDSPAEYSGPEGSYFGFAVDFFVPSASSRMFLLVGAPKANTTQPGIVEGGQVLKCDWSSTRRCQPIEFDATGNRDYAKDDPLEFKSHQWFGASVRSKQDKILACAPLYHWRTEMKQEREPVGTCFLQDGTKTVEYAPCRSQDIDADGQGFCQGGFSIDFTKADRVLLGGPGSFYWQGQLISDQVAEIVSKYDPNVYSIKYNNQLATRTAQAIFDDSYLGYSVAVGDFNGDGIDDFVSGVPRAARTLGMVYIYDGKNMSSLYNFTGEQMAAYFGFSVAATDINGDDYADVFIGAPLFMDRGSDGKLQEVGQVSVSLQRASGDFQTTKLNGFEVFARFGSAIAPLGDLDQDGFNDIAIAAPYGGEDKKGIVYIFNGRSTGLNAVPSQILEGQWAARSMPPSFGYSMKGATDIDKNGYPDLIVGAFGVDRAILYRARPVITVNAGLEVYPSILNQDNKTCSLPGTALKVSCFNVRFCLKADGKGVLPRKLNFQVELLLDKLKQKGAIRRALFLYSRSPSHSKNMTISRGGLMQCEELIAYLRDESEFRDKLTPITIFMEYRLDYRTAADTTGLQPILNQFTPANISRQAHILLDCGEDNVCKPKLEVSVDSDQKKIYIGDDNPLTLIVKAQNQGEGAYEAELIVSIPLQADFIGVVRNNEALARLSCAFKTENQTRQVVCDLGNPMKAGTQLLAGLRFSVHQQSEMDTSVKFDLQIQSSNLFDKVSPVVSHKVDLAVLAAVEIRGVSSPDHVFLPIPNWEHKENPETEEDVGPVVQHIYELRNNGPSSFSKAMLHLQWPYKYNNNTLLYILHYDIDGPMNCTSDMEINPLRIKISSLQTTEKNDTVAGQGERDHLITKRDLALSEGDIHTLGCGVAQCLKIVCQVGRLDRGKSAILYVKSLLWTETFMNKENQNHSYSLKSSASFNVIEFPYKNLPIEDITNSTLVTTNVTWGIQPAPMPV
T2 chain 2: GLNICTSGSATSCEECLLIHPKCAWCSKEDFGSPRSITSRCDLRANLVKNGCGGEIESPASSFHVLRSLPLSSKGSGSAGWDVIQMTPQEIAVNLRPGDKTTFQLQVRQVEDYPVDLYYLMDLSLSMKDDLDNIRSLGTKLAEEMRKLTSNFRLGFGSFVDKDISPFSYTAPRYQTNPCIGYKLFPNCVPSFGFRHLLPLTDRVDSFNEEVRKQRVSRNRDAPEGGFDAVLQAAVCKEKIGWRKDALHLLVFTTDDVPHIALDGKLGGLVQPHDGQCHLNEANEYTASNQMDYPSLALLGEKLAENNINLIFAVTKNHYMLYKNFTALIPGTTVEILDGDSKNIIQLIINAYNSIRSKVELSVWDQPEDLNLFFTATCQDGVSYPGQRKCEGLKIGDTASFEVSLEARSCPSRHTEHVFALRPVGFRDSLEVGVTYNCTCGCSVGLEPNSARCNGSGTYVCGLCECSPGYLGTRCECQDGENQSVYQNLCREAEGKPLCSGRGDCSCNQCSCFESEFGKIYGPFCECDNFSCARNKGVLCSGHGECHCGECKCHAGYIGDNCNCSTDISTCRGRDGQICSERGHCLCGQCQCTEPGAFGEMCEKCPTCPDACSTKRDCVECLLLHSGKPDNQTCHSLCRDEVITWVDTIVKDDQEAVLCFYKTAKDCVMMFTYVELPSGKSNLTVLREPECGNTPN

Another test deals with T3, integrin αvβ6 (human, UniProt P06756).
T3 chain 1: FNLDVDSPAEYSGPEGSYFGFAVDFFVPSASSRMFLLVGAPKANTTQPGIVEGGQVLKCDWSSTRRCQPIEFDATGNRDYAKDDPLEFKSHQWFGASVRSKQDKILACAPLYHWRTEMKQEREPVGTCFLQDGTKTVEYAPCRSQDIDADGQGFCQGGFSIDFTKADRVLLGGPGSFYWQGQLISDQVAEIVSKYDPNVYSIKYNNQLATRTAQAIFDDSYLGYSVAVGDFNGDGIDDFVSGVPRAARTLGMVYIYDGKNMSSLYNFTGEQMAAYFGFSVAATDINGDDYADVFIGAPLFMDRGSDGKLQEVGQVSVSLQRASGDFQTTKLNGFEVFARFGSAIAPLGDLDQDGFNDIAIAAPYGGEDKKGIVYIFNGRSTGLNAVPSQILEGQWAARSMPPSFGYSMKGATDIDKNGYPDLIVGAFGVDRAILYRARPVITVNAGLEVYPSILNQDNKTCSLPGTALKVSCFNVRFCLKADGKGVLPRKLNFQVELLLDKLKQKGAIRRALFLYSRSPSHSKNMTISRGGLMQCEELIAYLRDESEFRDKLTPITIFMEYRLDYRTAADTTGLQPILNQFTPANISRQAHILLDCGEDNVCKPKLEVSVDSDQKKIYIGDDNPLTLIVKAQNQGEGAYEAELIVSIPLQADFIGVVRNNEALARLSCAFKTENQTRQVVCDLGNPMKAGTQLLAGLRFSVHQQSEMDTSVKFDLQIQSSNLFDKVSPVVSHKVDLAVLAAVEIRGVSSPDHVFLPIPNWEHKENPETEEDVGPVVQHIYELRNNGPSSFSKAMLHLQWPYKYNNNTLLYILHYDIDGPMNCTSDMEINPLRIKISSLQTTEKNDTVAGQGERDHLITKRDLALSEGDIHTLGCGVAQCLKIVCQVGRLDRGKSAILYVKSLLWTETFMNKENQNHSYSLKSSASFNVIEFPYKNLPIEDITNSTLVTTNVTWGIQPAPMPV
T3 chain 2: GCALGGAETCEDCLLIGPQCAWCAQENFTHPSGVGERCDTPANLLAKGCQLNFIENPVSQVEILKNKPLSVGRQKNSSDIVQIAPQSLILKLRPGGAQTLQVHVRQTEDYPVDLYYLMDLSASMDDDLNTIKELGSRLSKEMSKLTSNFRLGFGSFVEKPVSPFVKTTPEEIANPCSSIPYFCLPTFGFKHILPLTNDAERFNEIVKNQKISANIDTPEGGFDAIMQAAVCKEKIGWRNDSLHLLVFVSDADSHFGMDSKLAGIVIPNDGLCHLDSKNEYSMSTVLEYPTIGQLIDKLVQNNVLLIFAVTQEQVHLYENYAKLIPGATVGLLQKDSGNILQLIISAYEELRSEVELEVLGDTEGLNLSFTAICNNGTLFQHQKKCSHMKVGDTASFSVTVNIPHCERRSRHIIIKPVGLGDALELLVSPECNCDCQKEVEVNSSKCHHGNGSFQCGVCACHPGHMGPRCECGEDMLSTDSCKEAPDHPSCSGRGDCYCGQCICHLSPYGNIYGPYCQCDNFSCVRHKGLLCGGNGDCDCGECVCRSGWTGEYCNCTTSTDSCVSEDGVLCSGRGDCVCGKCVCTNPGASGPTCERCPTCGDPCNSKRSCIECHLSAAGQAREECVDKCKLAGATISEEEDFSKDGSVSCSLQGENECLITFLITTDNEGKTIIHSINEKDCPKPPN

Another test addresses T4, integrin αvβ3 (human, UniProt P06756).
T4 chain 1: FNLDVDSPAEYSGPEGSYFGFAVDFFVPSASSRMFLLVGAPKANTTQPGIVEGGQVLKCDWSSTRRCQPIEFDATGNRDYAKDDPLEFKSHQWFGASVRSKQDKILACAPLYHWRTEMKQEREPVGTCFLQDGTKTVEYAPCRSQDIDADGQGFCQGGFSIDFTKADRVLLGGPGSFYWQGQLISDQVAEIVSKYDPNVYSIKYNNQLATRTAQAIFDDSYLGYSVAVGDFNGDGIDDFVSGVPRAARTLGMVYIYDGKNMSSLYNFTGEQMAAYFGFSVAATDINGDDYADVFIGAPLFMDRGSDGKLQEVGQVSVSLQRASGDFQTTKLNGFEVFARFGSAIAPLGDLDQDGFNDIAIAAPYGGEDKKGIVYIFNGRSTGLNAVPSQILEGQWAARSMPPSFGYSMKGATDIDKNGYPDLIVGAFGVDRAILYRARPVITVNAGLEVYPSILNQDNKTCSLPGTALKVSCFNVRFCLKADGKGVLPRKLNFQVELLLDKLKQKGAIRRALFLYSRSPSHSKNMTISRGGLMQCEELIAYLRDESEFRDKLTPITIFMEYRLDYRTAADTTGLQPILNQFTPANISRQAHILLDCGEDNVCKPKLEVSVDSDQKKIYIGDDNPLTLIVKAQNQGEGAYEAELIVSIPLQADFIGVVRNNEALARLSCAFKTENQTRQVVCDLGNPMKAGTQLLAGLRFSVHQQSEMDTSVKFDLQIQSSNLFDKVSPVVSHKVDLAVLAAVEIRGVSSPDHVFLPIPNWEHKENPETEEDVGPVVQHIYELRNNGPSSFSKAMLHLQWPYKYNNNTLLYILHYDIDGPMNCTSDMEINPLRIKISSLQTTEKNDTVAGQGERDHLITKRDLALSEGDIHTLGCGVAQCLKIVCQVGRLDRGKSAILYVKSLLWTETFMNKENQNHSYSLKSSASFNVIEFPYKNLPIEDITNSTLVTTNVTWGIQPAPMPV
T4 chain 2: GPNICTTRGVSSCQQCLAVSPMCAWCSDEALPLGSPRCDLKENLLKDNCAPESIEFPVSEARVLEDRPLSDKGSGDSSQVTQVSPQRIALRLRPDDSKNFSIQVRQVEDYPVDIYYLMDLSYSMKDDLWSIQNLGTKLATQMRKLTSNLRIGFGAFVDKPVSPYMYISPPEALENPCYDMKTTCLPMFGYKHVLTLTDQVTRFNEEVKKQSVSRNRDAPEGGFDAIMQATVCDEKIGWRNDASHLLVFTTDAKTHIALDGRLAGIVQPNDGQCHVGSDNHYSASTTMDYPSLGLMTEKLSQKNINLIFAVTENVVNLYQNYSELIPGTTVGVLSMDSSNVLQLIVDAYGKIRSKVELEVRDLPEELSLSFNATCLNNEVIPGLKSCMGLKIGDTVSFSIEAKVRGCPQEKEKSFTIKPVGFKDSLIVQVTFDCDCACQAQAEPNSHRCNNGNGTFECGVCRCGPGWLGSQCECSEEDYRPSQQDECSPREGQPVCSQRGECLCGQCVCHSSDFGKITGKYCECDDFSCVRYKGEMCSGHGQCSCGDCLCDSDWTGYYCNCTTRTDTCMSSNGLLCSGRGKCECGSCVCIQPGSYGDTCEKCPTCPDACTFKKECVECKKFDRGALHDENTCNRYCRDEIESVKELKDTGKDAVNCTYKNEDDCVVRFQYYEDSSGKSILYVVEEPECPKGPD

integrin α5β1, sequence (P08648 42-1049, chain 1 of 2): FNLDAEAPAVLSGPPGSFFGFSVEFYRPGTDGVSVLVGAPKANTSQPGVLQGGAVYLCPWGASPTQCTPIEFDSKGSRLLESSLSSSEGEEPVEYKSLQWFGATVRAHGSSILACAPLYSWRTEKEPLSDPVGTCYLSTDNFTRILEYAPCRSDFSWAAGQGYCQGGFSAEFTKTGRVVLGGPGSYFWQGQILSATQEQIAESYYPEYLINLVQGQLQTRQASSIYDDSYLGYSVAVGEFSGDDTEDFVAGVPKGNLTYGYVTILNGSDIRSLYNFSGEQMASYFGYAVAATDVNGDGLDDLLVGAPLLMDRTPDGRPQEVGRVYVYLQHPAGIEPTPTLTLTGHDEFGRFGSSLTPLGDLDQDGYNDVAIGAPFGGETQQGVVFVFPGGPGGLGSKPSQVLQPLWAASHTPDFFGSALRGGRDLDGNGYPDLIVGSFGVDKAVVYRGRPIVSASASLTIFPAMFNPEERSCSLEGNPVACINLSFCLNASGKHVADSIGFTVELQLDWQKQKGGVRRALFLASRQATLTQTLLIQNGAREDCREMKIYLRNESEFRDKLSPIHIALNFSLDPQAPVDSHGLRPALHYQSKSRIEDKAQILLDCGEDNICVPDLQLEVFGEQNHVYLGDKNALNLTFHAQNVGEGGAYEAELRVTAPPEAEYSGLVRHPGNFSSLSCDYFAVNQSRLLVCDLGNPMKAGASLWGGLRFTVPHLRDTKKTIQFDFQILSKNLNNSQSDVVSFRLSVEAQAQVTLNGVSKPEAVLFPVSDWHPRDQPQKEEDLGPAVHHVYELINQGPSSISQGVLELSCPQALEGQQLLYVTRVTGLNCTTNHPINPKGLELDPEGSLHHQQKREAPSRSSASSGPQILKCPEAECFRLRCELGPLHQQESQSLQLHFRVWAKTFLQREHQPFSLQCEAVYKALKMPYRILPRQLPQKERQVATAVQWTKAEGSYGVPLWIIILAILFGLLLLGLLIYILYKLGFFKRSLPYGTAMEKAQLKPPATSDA
integrin α5β1, sequence (chain, as listed by the source, chain 2 of 2): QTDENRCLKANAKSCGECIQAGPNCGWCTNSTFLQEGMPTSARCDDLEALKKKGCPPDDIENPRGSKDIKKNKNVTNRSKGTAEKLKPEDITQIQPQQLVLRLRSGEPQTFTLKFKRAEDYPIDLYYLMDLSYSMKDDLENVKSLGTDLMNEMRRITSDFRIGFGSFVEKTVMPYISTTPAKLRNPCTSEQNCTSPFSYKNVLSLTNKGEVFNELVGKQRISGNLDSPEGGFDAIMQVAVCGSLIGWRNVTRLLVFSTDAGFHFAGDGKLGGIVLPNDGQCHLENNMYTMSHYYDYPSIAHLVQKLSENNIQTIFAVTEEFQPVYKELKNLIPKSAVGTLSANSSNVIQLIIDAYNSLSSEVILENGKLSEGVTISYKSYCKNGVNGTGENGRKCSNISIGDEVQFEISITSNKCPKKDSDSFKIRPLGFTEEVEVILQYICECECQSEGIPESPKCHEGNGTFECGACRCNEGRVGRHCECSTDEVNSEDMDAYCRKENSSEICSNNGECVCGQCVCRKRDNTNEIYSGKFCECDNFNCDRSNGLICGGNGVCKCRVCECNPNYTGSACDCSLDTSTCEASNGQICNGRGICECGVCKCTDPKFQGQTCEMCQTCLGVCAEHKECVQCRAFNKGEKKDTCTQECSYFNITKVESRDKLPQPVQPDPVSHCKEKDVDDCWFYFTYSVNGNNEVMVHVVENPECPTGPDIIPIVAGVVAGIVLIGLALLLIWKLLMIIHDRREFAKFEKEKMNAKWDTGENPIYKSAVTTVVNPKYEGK

B1: Compound 9e (9-G(P)3G-BDPFL) (peptide)
chain: RGDL[dP][NMeK]([Gly-Pro-Pro-Pro-Gly-BODIPY(FL)])GL
modifications: not fully specified (bridges); also: cyclic, closure not given here
For the molecule B1, the IC50 (usually the midpoint of a concentration-inhibition curve) was 2.07 nM with integrin αvβ8; 979 nM with integrin α5β1; over 10000 nM with integrin αvβ5; 247 nM with integrin αvβ6; 585 nM in the test with integrin αvβ3.
